Among the targets are BC 244-C6 x CD3; BCMA 101 x CD3; BC 247-C3 x CD3.
Holding throughout (test): SPR (Biacore)
(Surface plasmon resonance follows binding to a sensor surface in real time, without labels.)

B1: Human BCMA (receptor)
chain (part 1 of 2): MLQMAGQCSQNEYFDSLLHACIPCQLRCSSNTPPLTCQRYCNASVTNSVKGTNASGGGGSEAHKSEIAHRYNDLGEQHFKGLVLIAFSQYLQKCSYDEHAKLVQEVTDFAKTCVADESAANCDKSLHTLFGDKLCAIPNLRENYGELADCCTKQEPERNECFLQHKDDNPSLPPFERPEAEAMCTSFKENPTTFMGHYLHEVARRHPYFYAPELLYYAEQYNEILTQCCAEADKESCLTPKLDGVKEKALVSSVRQRMKCSSMQKFGERAFKAWAVARLSQTFPNADFAEITKLATDLTKVNKECCHGDLLECADDRAELAKYMCENQATISSKLQTCCDKPLLKKAHCLSEVEHDTMPADLPAIAADFVEDQEVCKNYAEAKDVFLGTFLYEYSRRHPDYSVSLLLRLAKKYEATLEKCCAEANPPACYGTVLAEFQPLVEEPKNLVKTNCDLYEKLGEYGFQNAILVRYTQKAPQVSTPTLVEAARNLGRVGTKCCTLPEDQRLPCVEDYLSAILNRVCLLHEKTPVSEHVTKCCSGSLVERRPCFSALTVDETYVPKEFKAETFTFHSDICTLPEKEKQIKKQTALAELVKHKPKATAEQLKTVMDDFAQFLDTCCKAADKDTCFSTEGPNLVTRCKDALA
chain (part 2 of 2): SGHHGGHHGGHH
With B1, the Kd with BC 244-C6 x CD3 is 0.3 nM; in the assay with BCMA 101 x CD3 it was 0.5 nM; with BC 247-C3 x CD3, 0.4 nM.

What is called Kd is the constant that tells how readily two partners part at equilibrium. A high value points to weaker binding.

Source of the values: patent US20160176973A1 (published 2016).
